According to patent publication US20180099041A1:

Key:
[1] = target: gp160 clone 108051_005 Q655R (HIV-1)
[2] = target: gp160 clone 108069_005 Q655R (HIV-1)

Substance | IC50 (neutralization of pseudovirus infection) (108060_022 Q655R (HIV-1)) | IC50 (neutralization of pseudovirus infection) [1] | IC50 (neutralization of pseudovirus infection) [2] | IC50 (neutralization of pseudovirus infection) (108060_024 R655Q (HIV-1))
CD4-IgG (from UniProt P01730) (Fc fusion) | 0.161 µg/mL | 5.21 µg/mL | 1.08 µg/mL | > 20 µg/mL
broadly neutralizing monoclonal antibody 2F5 | 0.093 µg/mL | 0.343 µg/mL | 0.052 µg/mL | 3.43 µg/mL
broadly neutralizing monoclonal antibody 4E10 | 0.156 µg/mL | 1.31 µg/mL | 0.044 µg/mL | 6.55 µg/mL
broadly neutralizing, CD4 blocking monoclonal antibody b12 | > 20 µg/mL | > 20 µg/mL | > 20 µg/mL | > 20 µg/mL
enfuvirtide (peptide) | 0.004 µg/mL | 0.036 µg/mL | 0.011 µg/mL | 0.13 µg/mL
monoclonal antibody 2G12 | > 20 µg/mL | > 20 µg/mL | > 20 µg/mL | > 20 µg/mL
